Data from publication PMC3851687 (2013).

Experiments:
[1] = target: T1, humanized dPHD-HD1 (Pygo PHD F773W in complex with Lgs HD1) (Drosophila, UniProt Q9V9W8 747-804; Q961D9 321-353, F773W); assay: ITC; linked PHD-HD1 complex (uncleaved)
T1 sequence 1: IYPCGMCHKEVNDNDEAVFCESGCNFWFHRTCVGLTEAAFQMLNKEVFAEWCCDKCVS
T1 sequence 2: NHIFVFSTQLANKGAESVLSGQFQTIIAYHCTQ

[2] = target: T1, humanized dPHD-HD1 (Pygo PHD F773W in …); assay: ITC; linked PHD-HD1 complex (uncleaved linker)

Binder: ARTKQTARKSTGGKA (dimethyl-lysine at K4 (K4me2)) [H3K4me2 15-mer (histone H3 tail peptide dimethylated at lysine 4)]
- Kd [1]: 7.5 µM
- Kd [2]: 7.5 µM
